The values that follow come from article PMC3596245.

In assay [1] the target is NMMIIA rod filaments (residues 1338-1960) (human) (UniProt P35579). As to the kind of experiment: co-sedimentation.
Assay [2] has the same target. Nature of the assay: co-sedimentation. The source holds these as a separate data set.

Like-named read-outs stand apart in the source and are kept apart here.

Consider “GST-gelsolin full-length (G1-G6) (from UniProt P06396 28-782) (natural protein)”, for which the dissociation constant Kd – broadly, the concentration at which binding is half-saturated – came to 158 nM in assay [1] and 423 nM in assay [2].

On to “GST-gelsolin C-terminal half (G4-G6) (domain or fragment)”, for which the Kd came out at 212 nM in assay [1] and 1310 nM in assay [2].

Turning to “GST-gelsolin N-terminal half (G1-G3) (domain or fragment)”, the equilibrium dissociation constant (Kd) came to 220 nM in assay [1] and 495 nM in assay [2].
